B1: CED-4 apoptosome (natural protein, C. elegans)
chain: MLCEIECRALSTAHTRLIHDFEPRDALTYLEGKNIFTEDHSELISKMSTRLERIANFLRIYRRQASELGPLIDFFNYNNQSHLADFLEDYIDFAINEPDLLRPVVIAPQFSRQMLDRKLLLGNVPKQMTCYIREYHVDRVIKKLDEMCDLDSFFLFLHGRAGSGKSVIASQALSKSDQLIGINYDSIVWLKDSGTAPKSTFDLFTDILLMLKSEDDLLNFPSVEHVTSVVLKRMICNALIDRPNTLFVFDDVVQEETIRWAQELRLRCLVTTRDVEISNAASQTCEFIEVTSLEIDECYDFLEAYGMPMPVGEKEEDVLNKTIELSSGNPATLMMFFKSCEPKTFEKMAQLNNKLESRGLVGVECITPYSYKSLAMALQRCVEVLSDEDRSALAFAVVMPPGVDIPVKLWSCVIPVDICSNEEEQLDDEVADRLKRLSKRGALLSGKRMPVLTFKIDHIIHMFLKHVVDAQTIANGISILEQRLLEIGNNNVSVPERHIPSHFQKFRRSSASEMYPKTTEETVIRPEDFPKFMQLHQKFYDSLKNFACC
notes: CED-4, C. elegans; also called CED-4b; CED-4c; source: recombinantly expressed, obtained as previously reported (Qi et al, 2010), purified (SEC)

Legend:
[1] = biological target: the molecule itself; experiment: cryo-EM structure; CED-4/CED-3_CARD complex, assembled at 4°C for 1 h, purified by SEC in 20 mM HEPES pH 7.5, 10 mM KCl, 1.5 mM MgCl2, 1 mM EDTA, 1 mM DTT; about 2 uM
[2] = biological target: the molecule itself; experiment: cryo-EM structure; CED-4 apoptosome alone (Apo dataset), low-salt sample, about 2 uM; 3D classification and refinement
[3] = biological target: the molecule itself; experiment: cryo-EM structure; holoenzyme: ternary complex of CED-4, CED-3 CARD and CED-3 catalytic domain, assembled at 4°C for 1 h, purified by SEC in 20 mM HEPES pH 7.5, 10 mM KCl, 1.5 mM MgCl2, 1 mM EDTA, 1 mM DTT; about 2 uM
CED-4 apoptosome [4] = biological target: B1; experiment: cryo-EM structure; CED-4/CED-3_CARD complex, assembled at 4°C for 1 h, purified by SEC in 20 mM HEPES pH 7.5, 10 mM KCl, 1.5 mM MgCl2, 1 mM EDTA, 1 mM DTT; about 2 uM; conditions: both partners purified
CED-4 apoptosome [5] = biological target: B1; experiment: cryo-EM structure; CED-4/CED-3 catalytic complex: CED-4 incubated with CED-3 (198-503, C358A), assembled at 4°C for 1 h, purified by SEC in 20 mM HEPES pH 7.5, 10 mM KCl, 1.5 mM MgCl2, 1 mM EDTA, 1 mM DTT; about 2 uM; conditions: both partners purified

## B1
[1]
  stoichiometry N: 8
[2]
  stoichiometry N: 7
[3]
  stoichiometry N: 6

B2: WT CED-3 CARD (domain or fragment, C. elegans, UniProt P42573 1-91, looked up)
chain: MMRQDRRSLLERNIMMFSSHLKVDEILEVLIAKQVLNSDNGDMINSCGTVREKRREIVKAVQRRGDVAFDAFYDALRSTGHEGLAEVLEPL
notes: CED-3 CARD (caspase recruitment domain), C. elegans; source: E. coli BL21 (DE3), purified (Ni-NTA, Source-15Q anion exchange)
CED-4 apoptosome [4]
  stoichiometry N: 4 CED-3 CARDs per octameric CED-4 apoptosome

B3: CED-3 catalytic mutant (198–503, C358A) (domain or fragment, C. elegans, UniProt P42573 198-503, looked up)
chain: NRSFSKASGPTQYIFHEEDMNFVDAPTISRVFDEKTMYRNFSSPRGMCLIINNEHFEQMPTRNGTKADKDNLTNLFRCMGYTVICKDNLTGRGMLLTIRDFAKHESHGDSAILVILSHGEENVIIGVDDIPISTHEIYDLLNAANAPRLANKPKIVFVQAARGERRDNGFPVLDSVDGVPAFLRRGWDNRDGPLFNFLGCVRPQVQQVWRKKPSQADILIAYATTAQYVSWRNSARGSWFIQAVCEVFSTHAKDMDVVELLTEVNKKVACGFQTSQGSNILKQMPEMTSRLLKKFYFWPEARNSAV
notes: CED-3 catalytic domain, C. elegans, residues 198-503; also called CED-3 catalytic domain; catalytic mutant (C358A); source: expressed and purified as described previously (Huang et al, 2013)
CED-4 apoptosome [5]
  binding result: binds

From paper PMC10320015, “Structural insights into CED-3 activation” (Life Science Alliance, 2023)
